From the supplement of paper PMC9170038

Test system: MS2 coat protein
Assay: apparent KD of MS2 coat protein; designed switch direction (-1 OFF switch, 1 ON switch): -1; higher = weaker reporter binding
How it was run: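 SNAP-549-labelled MS2 coat protein was titrated, doubling from 0.7 or 1.5 nM to 3 µM, over designed RNA switches transcribed on Illumina chips by stalled E. coli RNA polymerase. Runs were done without input, with 200 uM small-molecule ligand, or with an oligonucleotide input. Apparent KD is the per-design median over clusters of curve-fitted normalised fluorescence.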

[1] = Eterna round: R95, input ligand: FMN 200 uM
[2] = Eterna round: R95, input ligand: microRNA oligo, concentration not stated
[3] = Eterna round: R95, input ligand: none
[4] = input ligand: microRNA oligo, concentration not stated

| Sequence | apparent KD of MS2 coat protein (input ligand: FMN 200 uM) [nM] | apparent KD of MS2 coat protein (input ligand: none) [nM] | apparent KD of MS2 coat protein [1] [nM] | apparent KD of MS2 coat protein [2] [nM] | apparent KD of MS2 coat protein [3] [nM] | apparent KD of MS2 coat protein [4] [nM] |
| --- | --- | --- | --- | --- | --- | --- |
| ACAUUGAAUGUGAGGAUAUCGAUGUGAUGGGUUGUCGAGAAGGCACAUGAGGAUCACCCAUGUGGGAAACAGCA [JR_BMEx4_Sub031] (Eterna round: R97, puzzle: Brourd's mod of Exclusion 4) | 127 | 44.6 | – | – | – | – |
| ACAUUGUAUGUGAGGAUAUCGAUGGGAUGGGUUGUCGAGAAGGCACAUGAGGAUCACCCAUGUAAGGGACAGCA [JR_BMEx4_Sub029] (Eterna round: R97, puzzle: Brourd's mod of Exclusion 4) | 295 | 83.1 | – | – | – | – |
| ACCGACAGAGGAUAUGCAAGUAGGAACAUGAGGAUCACCCAUGUGAUACGUGCACGUGCGGCAGAAGGCUGAUCGA [Velamaed] (Eterna round: R97, puzzle: Exclusion 5) | 17.1 | 15.4 | – | – | – | – |
| ACCUAACAUGAGGAUCACCCAUGUCAGGAUAUCCAAGCGAAAGCAAAAGCGAAAGCAAGGAGAAGGGACAGAGG [ChP 04-04-2015 #8] (puzzle: Exclusion 1) | – | – | 62.2 | 32.4 | 28.4 | – |
| ACCUCACAUGAGGAUCACCCAUGUCAGGAUAUCUAAUAUUGCAGCGUUCCCGACGCUGAGAGAAGGGACAUUAA [EX1 #30] (Eterna round: R97, puzzle: Exclusion 1) | 29.6 | 17.7 | – | – | – | – |
| ACCUCUGAGGAGGAUAUACAGUGCGAAAGGACAGUAGAAGGCUUCACAUGAGGAUCACCCAUGUCGAAAAGUGA [EX6 #80] (Eterna round: R97, puzzle: Exclusion 6) | 127 | 92.6 | – | – | – | – |
| ACGACCUGAGGAUAUACAUGAGGAUCACCCAUGUAUGCAACAGCCGGGAAAUCCCGAUGUAGAAGGCAGGAAAA [Eternabot (Original) Solution 26] (Eterna round: R97, puzzle: Exclusion 3) | 252 | 32.2 | – | – | – | – |
| ACGAUGAUCGAAAAGUGUAAACUAACAUGAGGAUCACCCAUGUAGGAUAUGGCUACGAAAAGUAGUCAGAAGGGCAUGUCAUCA [3 Av mod - 2] (Eterna round: R96, puzzle: Exclusion NG 3) | 24 | 20.3 | – | – | – | 13.2 |
| ACGCAUUGCCUUUGGUAGUGCGUAACAUGAGGAUCACCCAUGUAGGAUAUGGUAGGCUUUGCUUACCAGAAGGACAUAAUAAUA [Mat - Exclusion NG 3 - Mod of JL - D1] (Eterna round: R96, puzzle: Exclusion NG 3) | 54.2 | 26.6 | – | – | – | 22.7 |
| ACGCGUGGCUAGGAUAUGCAGCUAUCUGGCCAGGCAGAAGGAGCCACAUGAGGAUCACCCAUGUGGUGAUCCUC [eternacac ex6r4 sub3] (Eterna round: R97, puzzle: Exclusion 6) | 12.1 | 11.9 | – | – | – | – |
| ACGGCUGAAGGAUAUGCAGUGACCACAAAGGUAUGACUAUCACAUGAGGAUCACCCAUGUAGAAGGUCGGCGCC [Eternabot (L2) Solution 29] (Eterna round: R97, puzzle: Exclusion 2) | 13.6 | 14.4 | – | – | – | – |
| ACGGUGGUCCGAGAACAUGAGGAUCACCCAUGUGACAAAACCAAGGAUAUAGAAGGACCGCCCGACUAGAAGGUGGAAAGAAAA [Aresonen] (Eterna round: R96, puzzle: Exclusion NG 3) | 101 | 117 | – | – | – | 73.3 |
| ACGUAGGUAGUUAGGAUAUUUAGUAUAUUUACAGUGAAGAAGGAACAUGAGGAUCACCCAUGUAGUGGUGUCCA [Eternabot (L1) Solution 68] (Eterna round: R97, puzzle: Brourd's mod of Exclusion 4) | 1200 | 3180 | – | – | – | – |
| ACGUGAUAUCUGUCGGUGGACAUGAGGAUCACCCAUGUAAGCUUUUUGCCCGUCUUAUAACCCGGUGACAGACCUUC [Orlequla] (puzzle: Sensor v3, turn-off variant 1) | – | – | 32.4 | 340 | 53.6 | – |
| ACUAGAUGAGGAUAUGCAUAUUUUCGUGUUCUUCUAGGUUAACAUGAGGAUCACCCAUGUAGAAGGCGUCUAUU [Exclusion 2 - 23] (puzzle: Exclusion 2) | – | – | – | 18.6 | – | – |
| ACUCAGUGAGGAUAUCGCCAGAGAGCCACAACGGCCUCUGAUGAGAAGGCACAUGAGGAUCACCCAUGUAAGCA [EX4 C.2] (Eterna round: R97, puzzle: Exclusion 4) | 45.4 | 252 | – | – | – | – |
| ACUCGACAUGAGGAUCACCCAUGUGAGGAUAUGGCCUGUAUGGCGUGAGCUGGCUAAAUCAGAAGGCGCGUGGG [salish99_ex1_r4_049] (Eterna round: R97, puzzle: Exclusion 1) | 222 | 194 | – | – | – | – |

| Sequence | apparent KD of MS2 coat protein (input ligand: FMN 200 uM) [nM] | apparent KD of MS2 coat protein (input ligand: none) [nM] | apparent KD of MS2 coat protein [1] [nM] | apparent KD of MS2 coat protein [2] [nM] | apparent KD of MS2 coat protein [3] [nM] | apparent KD of MS2 coat protein [4] [nM] |
| --- | --- | --- | --- | --- | --- | --- |
| ACUCGACAUGAGGAUCACCCAUGUGAGGAUAUGGCCUGUAUGGCGUGAGCUGGCUCAAUAAGAAGGCGCGUGGG [salish99_ex1_r4_051] (Eterna round: R97, puzzle: Exclusion 1) | 235 | 188 | – | – | – | – |
| ACUCGACAUGAGGAUCACCCAUGUGAGGAUAUGGCCUGUUUGGCGUGAGCUGGCUCUGUCAGAAGGCGCGUGGG [salish99_ex1_r4_045] (Eterna round: R97, puzzle: Exclusion 1) | 138 | 75.5 | – | – | – | – |
| ACUGGUCGAGGAUAUACGAUCGUGCUUCGGCACGUAAGAUCACAUGAGGAUCACCCAUGUAGAAGGCGACCAGU [Mod 4 - Jieux - Exclusion 2] (Eterna round: R97, puzzle: Exclusion 2) | 246 | 35.3 | – | – | – | – |
| ACUUACUGAGGAUAUACAUAGAUUUACAUGAGGAUCACCCAUGUUCCUCUAUGUAUAAAUGUAGAAGGCAGAAGAU [Mat - Exclusion 5 - JL Mod - D55] (Eterna round: R97, puzzle: Exclusion 5) | 64.2 | 17.8 | – | – | – | – |
| ACUUAUAGAGGAUAUACAGAAUAUUACAUGAGGAUCACCCAUGUUCUUCAAUGUAUAUAAGUAGAAGGCUAAGGAU [Mat - Exclusion 5 - JL Mod - D4] (Eterna round: R97, puzzle: Exclusion 5) | 183 | 25.4 | – | – | – | – |
| ACUUAUAGAGGAUAUACAGAAUAUUACAUGAGGAUCACCCAUGUUCUUCAAUGUAUAUUUGUAGAAGGCUAAGGAA [EX-5 Malc#7] (Eterna round: R96, puzzle: Exclusion 5) | – | – | – | – | – | 46.6 |
| ACUUAUAGAGGAUAUACAGAAUAUUACAUGAGGAUCACCCAUGUUCUUCAAUGUAUAUUUGUAGAAGGCUAAGGAA [EX-5 Malc#7] (puzzle: Exclusion 5) | – | – | 192 | 45.6 | 40.6 | – |
| ACUUAUAGAGGAUAUACAGUAUAUUACAUGAGGAUCACCCAUGUUCUUCAAUGUAUAUAUGUAGAAGGCUAAGGAA [EX-5 Malc#6] (puzzle: Exclusion 5) | – | – | – | 183 | – | – |
| ACUUAUUGAGGAUAUACAGAAAAUUACAUGAGGAUCACCCAUGUUCUUCAAUGUAUAUAUGUAGAAGGCAGAAGAU [Mat - Exclusion 5 - JL Mod - D16] (Eterna round: R97, puzzle: Exclusion 5) | 48.9 | 14.5 | – | – | – | – |
| ACUUAUUGAGGAUAUACAUUAAAUUACAUGAGGAUCACCCAUGUUCUUCAAUGUAUAUAUGUAGAAGGCAAAAGAG [Mat - Exclusion 5 - JL Mod - D22] (Eterna round: R97, puzzle: Exclusion 5) | 26.5 | 14.4 | – | – | – | – |
| ACUUAUUGAGGAUAUACAUUAAAUUACAUGAGGAUCACCCAUGUUCUUCAAUGUAUAUAUGUAGAAGGCAGAAGAU [Mat - Exclusion 5 - JL Mod - D20] (Eterna round: R97, puzzle: Exclusion 5) | 18.2 | 14.4 | – | – | – | – |
| ACUUAUUGAGGAUAUACAUUGAUUAACAUGAGGAUCACCCAUGUACAAACAUGUAUUUAUGUAGAAGGCAGAAGAA [JR_Ex5_Sub067] (Eterna round: R97, puzzle: Exclusion 5) | 14.4 | 13.4 | – | – | – | – |
| ACUUUUAGUGGUCAAACUCACAUGAGGAUCACCCAUGUUUACAGGCUUAGGUGCUUGUCUUAUACUAAGGUUUACCG [Eternabot (L1) Solution 44] (Eterna round: R97, puzzle: Sensor, turn-off variant 1) | 96.9 | 122 | – | – | – | – |
| AGAAAUGCCCAUGGCCACAAGCUCUUUGCUUGUCUUACUACAUGAGGAUCACCCAUGUAACAUGGGCUCCUGAUAAU [Been] (puzzle: Sensor v3, turn-off variant 2) | – | – | 12.2 | 9.19 | 11.3 | – |
| AGAAAUGCCCAUGGCCGCAAGCUUUCUGCUUGUCUUACCACAUGAGGAUCACCCAUGUGACAUGGGCUCCUUAUAAU [Soralaer] (puzzle: Sensor v3, turn-off variant 2) | – | – | 14.4 | 11 | 13.2 | – |
| AGAACUCUAGUAGGAUAUGUCGGAUAUGUUGUUGAGGUUCACCCAACGACGUCAAUGACAGAAGGACAGAAGGACUCCUGUUCA [pwkr exNG2 2xFMN 1xF5.8] (Eterna round: R96, puzzle: Exclusion NG 2) | 1020 | 711 | – | – | – | 3670 |
| AGAAGUAGGAACCGAUCCUACAUGAGGAUCACCCAUGUAGCAAGACGUGCACGCGAAGCUCGUCAGACUACCAGAUG [salish99_TOv1_r3_021] (puzzle: Sensor v3, turn-off variant 1) | – | – | 558 | 399 | 531 | – |
